The record followed here is US20190144543A1 (TAYU HUAXIA BIOTECH MEDICAL GROUP, published 2019).

The target in assay [1] is T1, human PD-1 (hPD-1) expressed on cells (human, UniProt Q15116 25-288).
The target of assay [2] is T1, human PD-1 (hPD-1) expressed on cells. Kind of assay: cell based RBA (hPD-1/hPD-L1): blocking of Biotin-hPD-L1 binding to CHOK1-hPD-1 cells, flow cytometry.
Assay [3] has the same target. Nature of the assay: cell-based or functional assay.
For assay [4], the target named is T2, hPD-1mIg fusion protein (human; mouse, UniProt Q15116 25-170).
T2 construct: extracellular domain; also called hPD-mIg; not shown: CH2-CH3 domain of mouse IgG2a heavy chain (plasmid pmIgG)
T2 sequence (Q15116 25-170): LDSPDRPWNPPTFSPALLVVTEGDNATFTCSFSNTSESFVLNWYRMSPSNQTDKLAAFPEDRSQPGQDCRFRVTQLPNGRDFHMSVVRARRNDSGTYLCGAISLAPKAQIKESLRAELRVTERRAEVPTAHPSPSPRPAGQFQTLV
Nature of the assay: SPR, Biacore T200, hPD-1mIg immobilized at 33 RU on CM5, antibody as analyte.

Assay [5] concerns the target T3, cynomolgus monkey PD-1 (cPD-1) expressed on cells (cynomolgus monkey, UniProt B0LAJ3 25-288).
T3 construct: also called CHOK1-cPD-1; PD-1 on cynomolgus monkey T cell
Nature of the assay: flow cytometry, FACS binding to CHOK1-cPD-1 cells. The method, then:
(§1) The bindings of the antibodies to hPD-1 and cross-reactivity to cynomolgus monkey PD-1 (cPD-1) were tested using hPD-1 or cPD-1 expressing CHOK1 cells by flow cytometry. CHOK1-hPD-1, CHOK1-cPD-1 and CHOK1 blank cells were incubated with a serial dilution of test articles followed by Alexa Fluor® 488 conjugated goat anti-human IgG (H+L) antibody, and analyzed using a FACSCanto II (BD Biosciences, San Jose, Calif.).

Assay [6] concerns the target T1, human PD-1 (hPD-1) expressed on cells. Kind of assay: flow cytometry, FACS binding to CHOK1-hPD-1 cells. How it is done: as §1
Assay [7] concerns the target T2, hPD-1mIg fusion protein. Kind of assay: SPR, Biacore T100, hPD-1mIg immobilized on CM5, antibody as analyte. How it is done: The binding affinity and kinetics of the humanized PD-1 mAbs interact with hPD-1 protein was assessed with Biacore T100 (GE Healthcare Life Sciences). […] Nine different concentrations were tested for each sample. Detailed binding kinetic parameters (association rate, Ka, dissociation rate, Kd, and affinity constant, KD) can be determined by full kinetic analysis.

Numbering of substitutions follows the chain as printed.

T1 sequence (Q15116 25-288): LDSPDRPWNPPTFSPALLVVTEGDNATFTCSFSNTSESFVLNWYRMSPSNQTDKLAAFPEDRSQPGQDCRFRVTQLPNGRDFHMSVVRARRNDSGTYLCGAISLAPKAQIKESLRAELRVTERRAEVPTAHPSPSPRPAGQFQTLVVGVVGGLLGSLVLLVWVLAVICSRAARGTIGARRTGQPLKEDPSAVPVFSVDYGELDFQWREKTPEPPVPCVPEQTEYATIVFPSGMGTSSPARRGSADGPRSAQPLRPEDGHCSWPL
T3 sequence (B0LAJ3 entry or part of it limits assumed): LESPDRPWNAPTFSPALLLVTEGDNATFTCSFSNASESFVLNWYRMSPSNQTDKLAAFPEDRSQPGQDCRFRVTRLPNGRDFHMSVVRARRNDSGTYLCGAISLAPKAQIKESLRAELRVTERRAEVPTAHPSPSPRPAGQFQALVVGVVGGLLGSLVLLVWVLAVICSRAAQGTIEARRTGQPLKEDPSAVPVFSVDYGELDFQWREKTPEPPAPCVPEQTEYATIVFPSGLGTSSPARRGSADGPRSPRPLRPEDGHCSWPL

For the molecule control human IgG4 (antibody), the EC50 of luciferase signal (RLU), PD-1/PD-L1 Blockade Bioassay with Jurkat-PD1 and CHO-PD-L1 cells; the Ctrl IgG4 curve is flat at about 270000 RLU and never rises in assay [1] worked out at 12.4 µg/mL. In addition, the Inhibition rate in assay [2] was determined as 4.8%.

B1: Variant 3 (TY101) (humanized, VH variant a / VK variant c) (antibody, V domains shown)
VH: EVQLVESGGGLVQPGGSLRLSCAASGFTFSSYTMSWVRQAPGKGLEWVSYISHGGGDTYYADSVKGRFTISRDNSKNTLYLQMNSLRAEDTAVYYCARHSGYERGYYYVMDYWGQGTLVTVSS
VL: DIQLTQSPDSLSVSLGERATINCKASESVDYYGFSFLNWFQQKPGQPPKLLIYAASNRQSGVPDRFSGSGSGTDFTLTISSLQAEDVAVYFCQQSKEVPWTFGQGTKLEIKR
notes: hIgG4 is the negative control; also called mutant combination 3
In the case of B1, in assay [3], the “EC50 of luciferase signal (RLU), PD-1/PD-L1 Blockade Bioassay with Jurkat-PD1 and CHO-PD-L1 cells” value is 0.224 µg/mL. The “fold slower dissociation rate Kd than the two commercial antibodies (Pembrolizumab, Nivolumab)” value in the assay with hPD-1mIg fusion protein [4] was found to be 10 times.

B2: TY101-4G1 (antibody, V domains shown)
VH: B1 VH
VL: B1 VL
notes: TY101 is Variant 3 (VH a, VK c); isotype control is hIgG4; also called TY101 clone TY101-4G1
On to B2, for which the half-maximal effective concentration (EC50 (read off the curve)) is approximately 2 nM in assay [5] and approximately 0.9 nM in assay [6].

B3: TY101-04-T3-05 (antibody, V domains shown)
VH: B1 VH
VL: B1 VL
notes: TY101 is Variant 3 (VH a, VK c); isotype control is hIgG4; also called TY101 clone TY101-04-T3-05
On to B3, for which the “EC50 (read off the curve)” value was approximately 2 nM in assay [5] and approximately 0.9 nM in assay [6].

B4: TY101-01-09 (antibody, V domains shown)
VH: B1 VH
VL: B1 VL
notes: TY101 is Variant 3 (VH a, VK c); isotype control is hIgG4; also called TY101 clone TY101-01-09
On to B4, for which the “EC50 (read off the curve)” value in assay [5] is approximately 2 nM; in assay [6], approximately 0.9 nM.

B5: Variant 4 (humanized, VH variant b / VK variant a) (antibody, V domains shown)
VH: B1 VH with A61P
VL: B1 VL with Q3V, L4M, S12A, A25S, Q59E, F91Y
notes: also called mutant combination 4
For B5, in the assay with hPD-1mIg fusion protein [7], the kon was 119000 M⁻¹ s⁻¹.
